Assay results as given in patent US7981997B2, “Growth factor which acts through ErbB-4 RTK” (Yeda Research And Development Co., priority 2000, dated 2011).

Experiments:
Test in all cases: 32D cell proliferation, 24-hour dose-response MTT assay
Format in all cases: cell-based
[1] = system: D1 cells (32D expressing ErbB-1); settings: 24-hour dose-response, without IL-3
Method: (§1) The indicated derivative lines of 32D cells were tested for cell proliferation using the [3-(4,5-dimethylthiazol-2-yl)-2,5-diphenyl]tetrazolium bromide (MTT) assay. […] The MT assay was performed 24 hours later. Results are presented as percent induction over the control untreated cells, and are the mean±S.D. of 4 determinations. Each experiment was repeated at least twice with similar findings.
(§2) The establishment of a series of interleukin 3 (IL-3)-dependent 32D myeloid cells expressing all combinations of ErbB proteins has been described (Alimandi et al., 1997; Pinkas-Kramarski et al., 1996; Shelly et al., 1998). Cells were maintained in RPMI medium with 10% fetal bovine serum (FBS) and dilute IL3-containing conditioned medium. Prior to proliferation assays, cells were washed three times in RPMI/FBS and plated (5×10^5 cells/ml; 0.1 ml/well) into 96-well flat-bottomed plates with the indicated liconcentrations or with IL-3 (1:1000 dilution of conditioned medium). Cell survival was determined 24 hours later, or after the indicated time intervals, by MTT assay, as previously described (Mosman, 1983). MTT (0.05 mg/ml) was incubated with the analyzed cells for 2 hours at 37 C. Living cells can transform the tetrazolium ring into dark blue formazan crystals, that can be quantified by reading the optical density at 540-630 nm after lysis of the cells with acidic isopropanol.
(§3) To test the prediction that the novel transcript encodes an ErbB-specific ligand, the corresponding full-length EGF-like domain (residues 4-50, FIG. 1a, SEQ ID NO:2) was synthesized, denatured and refolded to allow proper disulfide bridging. This method has been used before to synthesize functionally active derivatives of other EGF-like growth factors (Barbacci et al., 1995; Lin et. al., 1988; Shelly et al., 1998). A series of derivatives of the 32D cell line engineered to express different ErbB receptors or their combinations has been previously described (Pinkas-Kramarski et al., 1996; Shelly et al., 1998). The myeloid 32D parental cells require cytokine stimulation, such as interleukin 3 (IL3) for their growth, and were chosen because they lack endogenous ErbB expression.

[2] = system: D12 cells (32D co-expressing ErbB-1 and ErbB-2); settings: 24-hour dose-response
Method: as §1, §2, §3

[3] = system: D13 cells; settings: 24-hour dose-response
Method: as §1, §2, §3

[4] = system: D2 cells (32D expressing ErbB-2); settings: 24-hour dose-response, without IL-3
Method: as §1, §2, §3

[5] = system: D23 cells; settings: 24-hour dose-response
Method: as §1, §2, §3

[6] = system: D24 cells (32D co-expressing ErbB-4 and ErbB-2)
Method: as §1, §2, §3

[7] = system: D3 cells (32D expressing ErbB-3); settings: 24-hour dose-response
Method: as §1, §2, §3

[8] = system: D4 cells (32D expressing ErbB-4); settings: 24-hour dose-response, in comparison to NRG-1β control
Method: as §1, §2, §3

B1: NRG-4: synthetic refolded mouse EGF-like domain of NRG-4 (residues 4 to 50, SEQ ID NO:2) (peptide, listed as Mus musculus)
chain: MPTDHEQPCGPRHRSFCLNGGICYVIPTIPSPFCRCIENYTGARCEEVFLPSSSIPSESNLSAAFVVLAVLLTLTIAALCFLCRKGHLQRASSVQCEISLVETNNTRTRHSHREH
Which results are given for B1?
mitogenic response of D1 cells [1]: did not respond; mitogenic response of D12 cells [2]: D24 cells) was the only line that responded mitogenically; mitogenic response of D13 cells [3]: D24 cells) was the only line that responded mitogenically; mitogenic response of D2 cells [4]: did not respond; mitogenic response of D23 cells [5]: D24 cells) was the only line that responded mitogenically; mitogenic response of D24 cells ([6]; 24-hour dose-response, MTT): responded mitogenically; mitogenic potency compared with NRG-1 in D24 cells ([6]; cells co-overexpressing ErbB-2 and ErbB-4): almost equipotent; mitogenic response of D3 cells [7]: did not respond; mitogenic response of D4 cells [8]: modest dose-dependent mitogenic response
